Reference: PMC7464140, “Cooperative Regulation of Campylobacter jejuni Heat-Shock Genes by HspR and HrcA” (Microorganisms, 2020)

Target: the molecule itself
Experiment: cross-linking; in vitro chemical cross-linking of HrcA and HspR proteins with formaldehyde (Figure S2)

Row | Protein | stoichiometry N
1 | His-tagged HspR (C. jejuni) (natural protein, UniProt Q0P926 1-124, looked up, HspR heat-shock transcriptional repressor of Campylobacter jejuni; Probably strain NCTC11168, the only C. jejuni strain named; also called His-HspR; recombinant His-tagged HspR; source: E. coli BL21 (DE3), pET15b-hspR, purified (Ni2+-NTA)) MEQHYDEPVYLISVVAKVLSIHPQTLRQYEREGLIEPSRTDGKIRLYSQRDIDRIKLILRLTRDMGINLAGVDVILKLKNQLHEFENLIDELRLELSKQQDKEAASKAVVKHKNSFDLIFYEKK | 2
2 | His-tagged HrcA (C. jejuni) (natural protein, UniProt Q9PPG2 1-264, looked up, HrcA heat-shock transcriptional repressor of Campylobacter jejuni; it could also have been GST-HrcA; also called His-HrcA; recombinant HrcA protein; source: E. coli BL21 (DE3), pET15b-hrcA, purified (Ni2+-NTA)) MMKSRDKKDLILESIIQTYLLDNAPIGSNELNSNLCIPASTIRVYLKRLSDEGLITQLHISSGRIPTILTMQNYWQNFWEKEQDKNIHIKNESFLKELSKEFEIYCLVYGGRSLVLKEVLDLNTKFIVLDFEDEELVLKYEKEAWNFLQSLIGLDLSSIEKIALRVHFIDLVEKIASLRQNLICYRSNEERAYQIYQNDEFVKLLDCQIHRHFKESLEFEPLFKEGFMGLKVDAQFLGEDVNIILAGSVYTDYKKILQYIKEAA | 2
